# Data taken from US20230242675A1 (SHANGHAI EPIMAB BIOTHERAPEUTICS, published 2023).
# Changes are numbered by the printed parent chain. Names may count otherwise.
# T1: human TGFβ2 (human, UniProt P61812 303-414)
# T1 construct: also called TGFβ isoform 2; TGFβ2 (Cat. No. CJ79, Novoprotein)
# T1 sequence (looked up): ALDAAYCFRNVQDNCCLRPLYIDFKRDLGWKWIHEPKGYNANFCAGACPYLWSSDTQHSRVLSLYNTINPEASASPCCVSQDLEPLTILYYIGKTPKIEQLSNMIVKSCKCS
# B1: HuEM0005-86-4 (antibody, human IgG1, V domains shown)
# VH: EVQLVQSGAEVKKPGASVKVSCKASGYTFTTYGINWVRQAPGQGLEWIGYIYIGNGYTEYNEKFKGRVTLTSDTSTSTAYMELSSLRSDDTAVYYCARDLMVIAPKTMDYWGQGTTVTVSS
# VL: DIQMTQSPSSVSASVGDRVTITCKASQDVGTAVAWYQQKPGKAPKLLIYWASTRHTGVPDRFTGSGSGTDFTLTISSLQPEDFATYYCQQYSSYPYTFGGGTKVEIK
# B2: HuEM0005-86-1 (antibody, human IgG1, V domains shown)
# VH: B1 VH with I48M, L70M, S72T
# VL: B1 VL
# B3: HuEM0005-86-2 (antibody, human IgG1, V domains shown)
# VH: B1 VH with I48M, L70M
# VL: B1 VL
# B4: HuEM0005-86-3 (antibody, human IgG1, V domains shown)
# VH: B1 VH with I48M
# VL: B1 VL
# B5: HuEM0005-86-6 (antibody, human IgG1, V domains shown)
# VH: B1 VH with A24T, R67K, V68A, T74P, S77R
# VL: B1 VL
# notes: measured without the G55A change
# B6: HuEM0005-87-19 (antibody, human IgG1, V domains shown)
# VH: EVQLVQSGAEVKKPGASVKVSCKASGYSFTDYYINWVRQAPGQGLEWIGETIPNTGGTTYNQKFKAKATLTVDKSTSTAYMELSSLRSEDTAVYYCARYQSGSPFAYWGQGTTVTVSS
# VL: EIVMTQSPATLSVSPGERATLSCKASQNVGTAVAWYQQKPGQAPRLLIYSASNRYTGVPDRFTGSGSGTEFTLTISSLQSEDFAVYYCQQHYSTPYTFGGGTKLEIK
# B7: HuEM0005-87-20 (antibody, human IgG1, V domains shown)
# VH: B6 VH with R38K, V72R, S84K
# VL: B6 VL
# B8: HuEM0005-87-21 (antibody, human IgG1, V domains shown)
# VH: B6 VH with S28T, I48M, K67R, A68V, L70M, K74T, A79V
# VL: B6 VL with E1D, E70D
# B9: HuEM0005-87-22 (antibody, human IgG1, V domains shown)
# VH: B6 VH with S28T, I48M, K67R, A68V, K74T, A79V
# VL: B6 VL with E1D, E70D
# B10: HuEM0005-87-23 (antibody, human IgG1, V domains shown)
# VH: B6 VH with S28T, K67R, A68V, A79V
# VL: B6 VL with E1D, E70D
# B11: HuEM0005-87-24 (antibody, human IgG1, V domains shown)
# VH: B6 VH
# VL: B6 VL with E1D, E70D
# B12: HuEM0005-90-20 (antibody, human IgG1, V domains shown)
# VH: EVQLVQSGAEVKKPGASVKVSCKTSGYTFTSHSINWVRQATGQGLEWIGYMYIGNGYTEYNEKFKGRATLTSNTSISTAYMELSSLRSEDTAVYYCAKITPVVAPYVMDYWGQGTSVTVSS
# VL: B1 VL with Q3V, S10F, V11L, G100Q, V104L
# B13: EM0005-90c(G55A) (antibody, human IgG1, V domains shown)
# VH: QVQLKQSGAELVRPGSSVKMSCKTSGYTFTSHSINWVKQRPGQGLEWIGYMYIGNAYTEYNEKFKGKATLTSDTSSTTAYMQLSSLTSEDSAIYFCAKITPVVAPYVMDYWGQGTSVTVSS
# VL: DIVMTQTHKFMSTSVGDRVSITCKASQDVGTAVAWYQQKPGQSPKLLIYWASTRHTGVPDRFTGSGSGTDFTLTISNVQSEDLADYFCQQYSSYPYTFGGGTKLELK
# notes: Chimeric antibody with G55A in CDR-H2; also called HuEM0005-90C-G55A
# B14: HuEM0005-86-7 (antibody, human IgG1, V domains shown)
# VH: B1 VH with T74P, S77R
# VL: B1 VL
# B15: HuEM0005-86-8 (antibody, human IgG1, V domains shown)
# VH: B1 VH with I48M, L70M, S72T
# VL: B1 VL with A43S, Y87F
# B16: HuEM0005-86-9 (antibody, human IgG1, V domains shown)
# VH: B1 VH with I48M, L70M
# VL: B1 VL with A43S, Y87F
# B17: HuEM0005-86-10 (antibody, human IgG1, V domains shown)
# VH: B1 VH with I48M
# VL: B1 VL with A43S, Y87F
# B18: HuEM0005-86-11 (antibody, human IgG1, V domains shown)
# VH: B1 VH
# VL: B1 VL with A43S, Y87F
# B19: HuEM0005-86-12 (antibody, human IgG1, V domains shown)
# VH: B1 VH with R67K, V68A
# VL: B1 VL with A43S, Y87F
# B20: bintrafusp alfa (bispecific antibody, human IgG1, lambda)
# heavy: not shown
# light: QSALTQPASVSGSPGQSITISCTGTSSDVGGYNYVSWYQQHPGKAPKLMIYDVSNRPSGVSNRFSGSKSGNTASLTISGLQAEDEADYYCSSYTSSSTRVFGTGTKVTVLGQPKANPTVTLFPPSSEELQANKATLVCLISDFYPGAVTVAWKADGSPVKAGVETTKPSKQSNNKYAASSYLSLTPEQWKSHRSYSCQVTHEGSTVEKTVAPTECS
# notes: also called M7824; Bintrafusp alfa protein
# Molecular target: T2, human PD-L1/His fusion protein (human, UniProt Q9NZQ7 19-239)
# Experiment: BLI Octet RED96, antibody on AHC sensor, single conc. PD-L1/His; test group 1
# Method: (§1) All 15 antibodies in Table 13 were assayed for and ranked by dissociation rate constant (koff). […] Briefly, antibodies were characterized for affinities and binding kinetics by Octet®RED96 biolayer interferometry (Pall ForteBio LLC). Antibodies were captured by Anti-hIgG Fc Capture (AHC) Biosensors (Pall) at a concentration of 100 nM for 30 seconds. Sensors were then dipped into running buffer (1×pH 7.2 PBS, 0.05% Tween 20, 0.1% BSA) for 60 seconds to check the baseline. Binding was measured by dipping sensors into a single concentration of recombinant human PD-L1/His fusion protein (Novoprotein). Dissociation was followed by dipping sensors into running buffer for 1200 seconds. The association and dissociation curves were fitted to a 1:1 Langmuir binding model using ForteBio Data Analysis software (Pall). […] The off-rate ratio serves as a data normalization. Accordingly, in each test group, the off-rate ratios of the humanized antibodies can be compared with that of the chimeric antibody, and the off-rate ratios of each of the humanized antibodies can be compared to one another within all test groups.
# T2 sequence (Q9NZQ7 19-239 limits assumed): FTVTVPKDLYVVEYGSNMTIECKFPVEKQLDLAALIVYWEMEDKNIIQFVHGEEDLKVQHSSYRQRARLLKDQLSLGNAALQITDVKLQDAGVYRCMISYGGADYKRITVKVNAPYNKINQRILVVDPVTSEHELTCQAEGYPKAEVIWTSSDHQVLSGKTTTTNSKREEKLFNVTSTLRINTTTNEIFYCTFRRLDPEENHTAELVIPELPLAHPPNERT
row,Binder,koff
1,B1,0.000957 s⁻¹
2,B2,0.00147 s⁻¹
3,B3,0.000887 s⁻¹
4,B4,0.00142 s⁻¹
5,B5,0.00122 s⁻¹

# Molecular target: T2, human PD-L1/His fusion protein
# Experiment: BLI off-rate; test group 1
# Method: as §1
row,Binder,Off-Rate Ratio to that of EM0005-86c
1,B1,78%
2,B2,120%
3,B3,72%
4,B4,115%
5,B5,99%

# Molecular target: T2, human PD-L1/His fusion protein
# Experiment: BLI Octet RED96, antibody on AHC sensor, single conc. PD-L1/His; test group 4
# Method: (§2) Briefly, antibodies were characterized for affinities and binding kinetics by Octet®RED96 biolayer interferometry (Pall ForteBio LLC). Antibodies were captured by Anti-hIgG Fc Capture (AHC) Biosensors (Pall) at a concentration of 100 nM for 30 seconds. Sensors were then dipped into running buffer (1×pH 7.2 PBS, 0.05% Tween 20, 0.1% BSA) for 60 seconds to check baseline. Binding was measured by dipping sensors into a single concentration of recombinant human PD-L1/His fusion protein (Novoprotein). Dissociation was followed by dipping sensors into running buffer for 1200 seconds. The association and dissociation curves were fitted to a 1:1 Langmuir binding model using ForteBio Data Analysis software (Pall). […] The off-rate ratio serves as a data normalization. Accordingly, in each test group, the off-rate ratios of the humanized antibodies can be compared with that of the chimeric antibody, and the off-rate ratios of each of the humanized antibodies can be compared to one another within all test groups.
row,Binder,koff
1,B6,0.000782 s⁻¹
2,B7,0.000801 s⁻¹
3,B8,0.000522 s⁻¹
4,B9,0.000738 s⁻¹
5,B10,0.000905 s⁻¹
6,B11,0.00101 s⁻¹
7,B12,0.00249 s⁻¹
8,B13,0.00255 s⁻¹

# Molecular target: T2, human PD-L1/His fusion protein
# Experiment: BLI off-rate; test group 4
# Method: as §2
Binder,Off-Rate Ratio to that of EM0005-87c,Off-Rate Ratio to that of EM0005-90c
B6,87%,
B7,89%,
B8,58%,
B9,82%,
B10,101%,
B11,113%,
B12,,111%
B13,,113%

# Molecular target: T2, human PD-L1/His fusion protein
# Experiment: BLI Octet RED96, antibody on AHC sensor, single conc. PD-L1/His; test group 2
# Method: as §1
row,Binder,koff
1,B14,0.00131 s⁻¹
2,B15,0.00155 s⁻¹
3,B16,0.0016 s⁻¹
4,B17,0.00157 s⁻¹
5,B18,0.00131 s⁻¹
6,B19,0.0015 s⁻¹

# Molecular target: T2, human PD-L1/His fusion protein
# Experiment: BLI off-rate; test group 2
# Method: as §1
row,Binder,Off-Rate Ratio to that of EM0005-86c
1,B14,73%
2,B15,87%
3,B16,89%
4,B17,88%
5,B18,73%
6,B19,84%

# Molecular target: T3, human TGFβ1 (human, UniProt P01137 279-390)
# T3 construct: also called TGFβ isoform 1; TGFβ1 (Cat. No. CA59, Novoprotein)
# Experiment: ELISA: human TGFβ1 coated (1 µg/ml), binding protein titrated 0.0006-10 nM, anti-human IgG Fc-HRP, OD450
# Method: (§3) Accordingly, each of the wells of the ELISA microplates provided a reaction mixture to test the ability of a particular binding protein at a particular concentration to bind to a particular TGFβ isoform. […] Plates were washed three times in washing buffer (PBS containing 0.05% Tween 20) and blocked for 1 hour at 37° C. with 200 μl per well of blocking buffer (1% BSA in PBS containing 0.05% Tween 20). […] The wells containing the various binding mixtures were incubated at 37° C. for 1 hour to permit binding to TGFβ protein on the surface of the wells. Thereafter, the wells were washed four times with washing buffer, and anti-human IgG Fc HRP (Sigma, Catalog No. A0170) was diluted 1:10000 and added to the wells at 100 μl per well to detect binding protein that was bound to TGFβ protein present on the surface of a well. The plates were incubated for 1 hour at 37° C. and washed four times with washing buffer. 100 μl of tetramethylbenzidine (TMB) chromogenic solution were added per well. Following color development, the reaction was stopped with 1 N HCl, and absorbance at 450 nm (OD450) was measured on a VARIOSKAN™ LUX microplate reader (Thermo Scientific™).
# T3 sequence (P01137 279-390 limits assumed): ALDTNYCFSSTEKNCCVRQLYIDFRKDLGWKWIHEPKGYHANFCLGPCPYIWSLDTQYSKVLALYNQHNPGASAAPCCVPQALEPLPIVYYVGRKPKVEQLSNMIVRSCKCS
row,Binder,EC50
1,B20,0.696 nM

# Molecular target: T1, human TGFβ2
# Experiment: ELISA: human TGFβ2 coated (1 µg/ml), binding protein titrated 0.0006-10 nM, anti-human IgG Fc-HRP, OD450
# Method: as §3
row,Binder,EC50
1,B20,3.6 nM
